This sample holds only a part of the variants without activity.
B1: TPR 5TU (parent)
chain: GGAUCUUCUCGAUCUAACAAAAAAGACAAAUCUGCCACAAAGCUUGAGAGCAUCUUCGGAUGCAGAGGCGGCAGCCUUCGGUGGCGCGAUAGCGCCAACGUUCUCAACUAUGACACGCAAAACGCGUGCUCCGUUGAAUGGAGUUUAUCAUG

Variants of: B1
Experiment: polymerase ribozyme fitness, log enrichment relative to wild type (log ratio); higher = more active; in vitro selection for triplet polymerase activity
Outline: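 One round of in vitro selection, in triplicate, was applied to PCR-built, transcribed mutant libraries of each subunit of a heterodimeric triplet polymerase ribozyme. The steps were annealing with a biotinylated primer, partner subunit and triplets, incubation frozen at −7 °C, gel excision of extended constructs, streptavidin-bead capture and RT-PCR. Fitness is the logarithm, base 2, of genotype enrichment over wild-type enrichment from inverse-variance-weighted replicate averages of Illumina-sequenced inputs and outputs, keeping genotypes with ≥10 input reads and ≥1 read per output.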

Going from GGAUCUUCUCGAUCUAACGAAAAAGACAAAUCUGCCACAAAGCUUGAGAGCAUCUUCGGAUGCAGAGGCGGCAGCCUUCGGUGGUGCGAUAGCUCCAACGUUCUCAACUAUGACACGCAAAACGCGUGCUCCGUUGAAUGUAGUUUAUCAUG to GGAACUUCUCGAUCUAACAAAAAAGACAAAUCUGCCACAAAGCUUGAGAGCAUCUUCGGUUGCAGAGGCGGCAGCCUUCGGUGGCACGAUAGCGCCAACGUUCUCAGCUAUGACACGCAAACCGCGUGCUCCGUUGAAUGGAGUUUAUCAUG, the “polymerase ribozyme fitness (log ratio)” value falls from 0.14 to ≤ -4.2.

First: GGAUCUUCUCGAUCUAACAAAAAAGACAAAUCUGCCACAAAGCUUGAGAGCAUCUUCGCAUGCAGAGGCGGCAGCCUUCGGUGGCGCGAUAGCGCCAACGUUCUCAACUAUGACACGCAAAACGCGUGCUCCGUUGAAUGGAGUUUAUCAUG
Second: GGAUCUUCUCGAUCUAACAAAAAAGACAAAUCUGGCACAAAGCUUGAGAGCAUAUACGGAUGCAGAGGCGGCAGCCUUGGGUGGCGCGAUAGCGCCAAUGUUCUCAACUAUGACACGCAAAACGCUUGCUCCGUUGAAUGGAUUUUAUCAUG
The “polymerase ribozyme fitness (log ratio)” value of the first is higher: 0.0972 for the first, ≤ -4.2 for the second.

First: GGAUCUUCUCGAUCUAACAAAAAAGACAAAUCUGCCACAAAGCUUGAGAGCAUCUACGGAUGCAGAGGCGGCUGCCUUGGGUGGCGCAAUAGCGCCAACGUUCUCAACUAUGACACGCAAAACGCGUGCUCCGUUGAAUGGAGUUUAUCAUG
Second: GGAUCUUCUCGAUCUAACAAAAAAGACAAAUCUGCCACAAAGCUUGAGAGCAUCUUCGGAUGCAGAGGCGGCAGCCUUCGGUGACGCGAUAGCGCCAACGUUCCCAACUAUGACACGCAAAACGCGUGCUCCGUUGAAUGGAGUUUAUCAUG
The “polymerase ribozyme fitness (log ratio)” value of the first is lower: ≤ -4.2 for the first, -0.421 for the second.

GGAUCUUCUCGAUCUAACAAAAAAGACAAAUCUGCCACAAAGCAUGAGUGCAUUUUCGUAUGCAGAGGCGGCAGCCUUCGGUGGCGCGAUAACGCCAACGUUCUCUACUAUGACACGCAAAACGCGUGCUCCGUUGAAUGGAGUUUAUCAUG and GGAUCUUCUCGUUCUAACAAAAAAGACAAAUCUGACACAAAGCAUGAGAGCAUCUUCGGAUGCAGAGGCGGCAGCCUUCGGUGGCGCGAUACCGCCAACGUUCUCAACUAUGACACGCAAAACGCGAGGUCCGUUGAAUGGAAUUUAUCACG cannot be ordered by “polymerase ribozyme fitness (log ratio)” value: ≤ -4.2 for the first, ≤ -4.2 for the second.

Going from GGAUCUUCUCGAUCUAACAAAAAAGACAAAUCUGCCACAAAGCUUGAGAUCAUCAUCGGAUGCAGAGGCGUCAGCCUUCGGUGGCGCGAUAGCGCCAACGUUCUCAACUAUGACACGCAAAACGCGUGCUCCGUUGAAUGGAGUUUAUCAUG to GGAUCUUCUCGAUCUAACAAAAAAGACAAAUCUGCCACAAAGCUUGAGGACAUCAUCGGAUGCAGAGGCGGCAGCCUUCGGUGGCGCGAUAGCGCCAACGUUCUCAACUAUGACACGCAAAACGCGUGCUCCGUUGAAUGGAGUUCAUCAUG, the “polymerase ribozyme fitness (log ratio)” value rises from -3.35 to -1.98.

GGAUCUUCUCGAUCUAACAAAAAAGACAAAUCUGCCACAAAGCUUGAGAGCAGCUUGGGAUGCAGAGGCCGCAGCCUUGGGUGGCGCGUUUGUGCCAACGUUCUCAACUAUGACACGCAAAACGCGUGCUCCGUUGAAUGGAGUUUAUCAUG and GGAUCUUCUCGAUCUAACAAAAAAGACAAAUCUGCCACAAAGCUUGAGCGCAUCUUCGGAUGCAGAGGCGGCAGCCUUCGGUGGCGCGAUUGCGACAACGUUCUCAUCUAUGACACGCAAAACGCGUGCUCCGUUGAAUGGAGUUUAUCAUG cannot be ordered by “polymerase ribozyme fitness (log ratio)” value: ≤ -4.2 for the first, ≤ -4.2 for the second.

Compared with GGAUCUUCUCGAUCUAACAAAAAAGACAAAUCUGCCACAAAGCUUGAGAGCAUCUACGGAUGCAGAGGCGGCAGCCUUCGGUGGCGCGAUACCGCCAACGUUCUCAACUAUGACACGCAAAACGCGUGCUCCGUUGAAUGGAGUUUAUCAUG, GGAUCUUCUCGAUGUAACAAAAAAGACAAAUCUGCCACAAAGCUUGAGAGCAUCUUCGGAUGCAGAGGCGGCAGCCUUCGGUGGGGCGAUAGCGCCAACGUUCUCAACUAUGACACGCAAAACGCGUGCUACGUUGAAUGGAGUUUAUCAUG is lower in “polymerase ribozyme fitness (log ratio)” value: -1.7 for the first, ≤ -4.2 for the second.

Going from GGAUCUUCUCGAUCUAACAAAAAAGACAAAUCUGCCACAUAGCUUGAGAGCAUCUUCGGAUGCAGAGGCGGCAGCCUUCGGUGGCGCGAUAGCGCCAACGUUCUCAACUAUGACACGCAAAACGCGUGCUCCGUUGUAUCGAGUUUAUCAUG to GGAUCUUCUCGAUCUAACAAAAAAGACAAAUCUGCCACAAAGCUUGAGAGCAUCAUCGGAUGCAGAGGCGGCAGCCUUCGGUGGCGCGAUAGCUCCAACGUUCUCAAAUAUGACACGCAAAACGCGUGCUCCGUUGAAUGGAGUUUAUCAUG, the “polymerase ribozyme fitness (log ratio)” value falls from -4.19 to ≤ -4.2.

First: GGAUCUUCUCGAUCUAACAAAAAAGACAAAUCUGCCACAAAGCUUGAGAGGGUCUUCGGAUGCAGAGGCGGCAGCCUUCGGUGGCGCGAUAGCGCCAACGUACUCAACUAUGACACGCAAAACGCGUGCUCCGUUGAAUGGAGUUUAUCAUG
Second: GGAUCUUCUCGAUCUAACAAAAAAGACAAAUCUGCCACAAAGCUUGAGAGCAUCUUCGAAUGCAGAGGCGGCGGCCUUCGGUGGCGCGACAGGGCCAACGUUCUCAACUAUGACACGCAAAACGCGUGCUUCGUUGAAUGGAGGUUAUCAUG
The “polymerase ribozyme fitness (log ratio)” value of the first is higher: -3.01 for the first, ≤ -4.2 for the second.

For GGAUCUUCUCGAUCUAACACAAAAGACAAAUCUGCCACAAAGCUUGAGAGCAUCUACGGAUGCAGAGGCGGCAGCCUUCGGUGGCGCGAUAGAGCCAACGUUCUCAACUAUGACAAGCAAAACGCGUGCUCCGUUGAAUGGAGUUUAUCAUG, the “polymerase ribozyme fitness (log ratio)” value was -1.28.

— the RNAGym collection of RNA variant scans (doi:10.1073/pnas.2313332121)
